Experiment [1] deals with T1, MASP-2 CCP1-CCP2-SP (human, UniProt O00187 298-686, limits assumed).
T1 construct: domain: CCP1-CCP2-SP; Recombinant fragment
In words: enzyme inhibition, Z-L-Lys-SBzl substrate, tight-binding fit.

In the next experiment the target is Trypsin. Described as above.
The target of experiment [2] is T2, MASP-1 CCP1-CCP2-SP (human, UniProt P48740 298-699, limits assumed).
T2 construct: domain: CCP1-CCP2-SP; Recombinant fragment
T2 sequence (looked up): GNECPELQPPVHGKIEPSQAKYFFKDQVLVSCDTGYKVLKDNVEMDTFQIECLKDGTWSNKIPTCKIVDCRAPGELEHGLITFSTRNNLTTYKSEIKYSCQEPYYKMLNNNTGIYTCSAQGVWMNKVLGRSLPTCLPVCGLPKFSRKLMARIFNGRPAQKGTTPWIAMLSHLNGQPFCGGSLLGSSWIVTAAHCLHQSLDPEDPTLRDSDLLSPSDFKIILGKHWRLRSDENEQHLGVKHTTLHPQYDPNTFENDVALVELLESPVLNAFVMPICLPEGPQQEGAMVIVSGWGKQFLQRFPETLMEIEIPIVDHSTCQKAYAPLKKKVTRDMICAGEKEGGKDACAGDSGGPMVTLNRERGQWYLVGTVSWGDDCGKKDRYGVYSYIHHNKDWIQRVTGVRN
The description is as above.

Experiment [3] deals with T1, MASP-2 CCP1-CCP2-SP. In words: preliminary experiments, method not described.
The target in experiment [4] is T2, MASP-1 CCP1-CCP2-SP. In words: preliminary experiments, method not described.
A further experiment has as its target Thrombin. In words: enzyme inhibition, Z-Gly-Pro-Arg-pNa substrate, tight-binding fit.

Bridge positions count the residues as written; N and C are the ends. Ends that are not written are not given here.

Trypsin, sequence (P00760 24-246): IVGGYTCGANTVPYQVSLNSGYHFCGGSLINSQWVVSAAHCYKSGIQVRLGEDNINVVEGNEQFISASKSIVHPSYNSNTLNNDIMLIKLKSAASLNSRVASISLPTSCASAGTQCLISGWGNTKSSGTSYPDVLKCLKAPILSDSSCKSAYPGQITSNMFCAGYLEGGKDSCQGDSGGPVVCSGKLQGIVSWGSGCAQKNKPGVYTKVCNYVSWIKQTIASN
T1 sequence (O00187 298-686 limits assumed): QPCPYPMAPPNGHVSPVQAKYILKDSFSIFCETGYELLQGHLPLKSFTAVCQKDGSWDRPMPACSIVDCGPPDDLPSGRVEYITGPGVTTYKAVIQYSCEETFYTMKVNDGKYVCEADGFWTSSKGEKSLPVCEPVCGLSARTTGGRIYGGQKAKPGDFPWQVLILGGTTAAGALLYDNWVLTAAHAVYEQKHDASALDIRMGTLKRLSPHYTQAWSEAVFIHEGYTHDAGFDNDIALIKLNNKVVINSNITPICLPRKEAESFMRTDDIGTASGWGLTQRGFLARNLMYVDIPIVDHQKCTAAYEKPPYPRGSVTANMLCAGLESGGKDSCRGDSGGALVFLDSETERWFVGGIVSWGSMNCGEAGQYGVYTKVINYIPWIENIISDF

The term Ki denotes a dissociation constant, usually derived from enzyme kinetics or from competition with a known ligand. With GMCSRSYPPVCIPD (disulfide 3-11 (inferred), Point mutant of M2-6E) [M2-6E-Y2M], the Ki turned out to be 1.5 µM with MASP-2 CCP1-CCP2-SP [1], 4 µM with Trypsin and 4 µM with MASP-1 CCP1-CCP2-SP [2].
For GWCSRSYPPVCIPD (disulfide 3-11 (inferred), Point mutant of M2-6E) [M2-6E-Y2W], the figures for the Ki with MASP-2 CCP1-CCP2-SP [1] and with Trypsin were 0.58 µM and 1.7 µM, respectively.
Regarding GYCSRSIPPVCIPD (disulfide 3-11 (inferred), Point mutant of M2-6E) [M2-6E-Y7I], the Ki was determined as 7 µM in the experiment with MASP-2 CCP1-CCP2-SP [1] and 0.16 µM with Trypsin.
Turning to EVTCEPGTTFKDKCNTCRCGSDGKSAACTLKACPQ (other, UniProt O46162 57-91, looked up) [Schistocerca Gregaria Chymotrypsin Inhibitor (SGCI)], the binding result in the experiment with MASP-2 CCP1-CCP2-SP [3] and with MASP-1 CCP1-CCP2-SP [4] was “no binding” throughout.
As to cyclo(GICSRSLPPICIPD) (disulfide 3-11 (inferred), Backbone-cyclised form of M2-4G) [M2-4G cyclic], the Ki worked out at 0.75 µM in the experiment with MASP-2 CCP1-CCP2-SP [1], 0.35 µM with Trypsin and 0.275 µM with MASP-1 CCP1-CCP2-SP [2].

B1: M1-3E-Y12W (peptide)
peptide: GVCSRSLPPICWPD
modifications: disulfide 3-11 (inferred)
notes: The parent M1-3E was not tested as a synthetic peptide
Take B1: the Ki stood at 5 µM with MASP-2 CCP1-CCP2-SP [1], 0.17 µM in the experiment with Trypsin and 0.14 µM with MASP-1 CCP1-CCP2-SP [2].

B2: M2-4G (peptide)
peptide: GICSRSLPPICIPD
modifications: disulfide 3-11 (inferred)
notes: Synthetic consensus peptide of the non-selective group, linear form; also called "NS" peptide; non-selective peptide
Turning to B2, the Ki with MASP-2 CCP1-CCP2-SP [1] was 1.03 µM; with Trypsin, 0.26 µM; with MASP-1 CCP1-CCP2-SP [2], 0.065 µM; in the experiment with Thrombin it was 10 µM.
